The source of these data is patent US20240033291A1 (CELLENGENE, published 2024).

This assay addresses human mesothelin protein (MSLN antigen, Acro Biosystems) (human, UniProt Q13421 37-622). Put plainly: ELISA, coated human mesothelin 1 ug/mL, purified scFv serially diluted, anti-StrepMAB HRP.

Chain of human mesothelin protein (MSLN antigen, Acro Biosystems) (Q13421 37-630): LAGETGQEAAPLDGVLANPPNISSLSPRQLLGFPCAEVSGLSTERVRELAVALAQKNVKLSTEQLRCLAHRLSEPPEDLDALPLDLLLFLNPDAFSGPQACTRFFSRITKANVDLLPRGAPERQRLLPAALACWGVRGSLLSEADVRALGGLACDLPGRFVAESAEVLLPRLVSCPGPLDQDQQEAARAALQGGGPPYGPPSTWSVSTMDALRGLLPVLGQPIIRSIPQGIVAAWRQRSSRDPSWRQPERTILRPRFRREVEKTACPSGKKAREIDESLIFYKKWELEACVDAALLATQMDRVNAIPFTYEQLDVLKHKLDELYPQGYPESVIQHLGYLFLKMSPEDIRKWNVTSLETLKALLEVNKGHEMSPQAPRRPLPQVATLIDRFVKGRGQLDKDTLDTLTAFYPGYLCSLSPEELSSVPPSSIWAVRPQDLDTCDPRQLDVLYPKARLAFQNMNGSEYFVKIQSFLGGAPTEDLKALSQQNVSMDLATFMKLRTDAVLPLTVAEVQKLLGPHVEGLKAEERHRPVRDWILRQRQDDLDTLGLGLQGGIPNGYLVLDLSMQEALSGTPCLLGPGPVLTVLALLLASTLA

B1: anti-MSLN-scFv antibody MSLN3 (purified scFv) (scFv)
chain: EVQLVESGGGLVQPGGSLRLSCAASGFTFSDYAMSWVRQAPGKGLEWVSAISSSGGTTYYADSVKGRFTISRDNSKNTLYLQMNSLRAEDTAVYYCAKEEEGEWREYFDVWGQGTLVTVSSGGGGSGGGGSGGGGSDIQMTQSPSSLSASVGDRVTITCRASQSISSYLNWYQQKPGKAPKLLIYATSTLQSGVPSRFSGSGSGTDFTLTISSLQPEDFATYYCQQSYTFPYTFGQGTKVEIKAST
For B1, a half-maximal response (EC50) required 145 nM.
